In the RNAGym collection of RNA variant scans (doi:10.1093/nar/gkz1192) one finds self-cleavage data, which are given here for 34 variants.

First the molecules themselves.
B1: CPEB3 Ribozyme (parent)
chain: UAACAGGGGGCCACAGCAGAAGCGUUCACGUCGCAGCCCCUGUCAGAUUCUGGUGAAUCUGCGAAUUCUGCUGUAUAUCUC

The variants in the data set derive from B1. Put plainly: self-cleavage, relative activity (ratio to wild type); higher = more cleavage; in vitro, sequencing. The essentials:
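Relative activity compares each variant's cleaved/total read fraction with that of the unmutated ribozyme. To get these fractions, barcoded CPEB3 ribozyme libraries from rounds of error-prone PCR were transcribed with T7 RNA polymerase for 5 hours at 37°C and then given 15 min of DNase I treatment before EDTA was added. The RNAs were reverse transcribed with template switching and sequenced on Illumina, and DNA sequencing linked barcodes to variants. A minimum of 5 reads applied, and three batches were averaged.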
As for UAACAGGGGGCCACAGCAUAAGCGUUCACGUCGCAGCCCCCGUCAGAUUCUGGUGAAUCUGCGAAUUCUGCUGUAUAUCUC, the self-cleavage is 0.22.

With UAACAGGGGGCCACAACAGAAGCGUUCACGUCGCAGCCCCUGUCAGAUUCUGGUGAAUCUGCGAAUUCUGCUGUAUACCUC, the self-cleavage turned out to be 0.59.

As to UAACAGGGGGCCACAGCAGAAGCGUUCACGUCGCAGCCCCUGCCAGAUUAUGGUGAAUCUGCGAAUUCUGCUGUAUAUCUC, the self-cleavage turned out to be 0.31.

On to UAACAGCGGGCCACGGCAGAAGCGUUCACGUCGCAGCCCCUGUCAGAUUCUGGUGAAUCUGCGAAUUCUGCUGUAUAUCUC, for which the self-cleavage was determined as 0.21.

Regarding UAACAGGGGGCCACAGCAGAAGCGUUCACGUCGCAGCCCCUGUCAGAUCCUGGUGAAUCUGCGAAUUCCGCUGUAUAUCUC, the self-cleavage turned out to be 0.31.

For UAACAGGGGGCCACAGCGGAAGCGUUCACGUCGCAGCCCCUGUCUGAUUCUGGUGAAUCUGCGAAUUCUGCUGUAUAUCUC, the self-cleavage was 0.35.

As for UAACAGGGGGCCACAGCAGAAGCGUUCACGUCGCAGCCCCUGUCAGAUCCUGGUGAAUCUGGGAAUUCUGCUGUAUAUCUC, the self-cleavage was 0.46.

In the case of UAACAGGGGGCCACAGCAGAAGCGUUCACGUCGCAGUCCCUGUCAGAUCCUGGUGAAUCUGCGAAUUCUGCUGUAUAUCUC, the self-cleavage turned out to be 0.37.

In the case of UAACAGGGGGCCACCGCAGAAGCGUUCACGUCGCAGCCCCUGUCAGAUUCUGGUGAAUCUGCGAUUUCUGCUGUAUAUCUC, the self-cleavage is 0.17.

Take UAACAGGGGGCCACAGCAGAAGCGUUCACGACGCAGCCCCUGUCAGGUUCUGGUGAAUCUGCGAAUUCUGCUGUAUAUCUC: the self-cleavage is 0.54.

Turning to UAACAGGGGGCCACAGCAGAAGCGUUCAUGUCGCUGCCCCUGUCAGAUUCUGGUGAAUCUGCGAAUUCUGCUGUAUAUCUC, the self-cleavage worked out at 0.22.

In the case of UAACUGGGGGCCACAGCAGAAGCGCUCACGUCGCAGCCCCUGUCAGAUUCUGGUGAAUCUGCGAAUUCUGCUGUAUAUCUC, the self-cleavage was determined as 0.41.

Regarding UAACAGGGGGCCACAGCAGAAGCGUUCACGGCGCAGCCCCUGUCAGAUUCUGGUAAAUCUGCGAAUUCUGCUGUAUAUCUC, the self-cleavage amounted to 0.21.

Regarding UAACAGGGGGCCACAACAGAAGCGCUCACGUCGCAGCCCCUGUCAGAUUCUGGUGAAUCUGCGAAUUCUGCUGUAUAUCUC, the self-cleavage worked out at 0.18.

UAACAGGGGGCCACAGCAGAAGCGUUCACGUCGCGGCCCCUGUCAGAUUCUGGUGAAUCUGCGAGUUCUGCUGUAUAUCUC: the self-cleavage was 1.19.

Consider UAACAGGGGGCCACAGCAGAAGCGUUCACGUCGCGGCCCCUGUCAGAUUCUGGUGAAUCUGCGAUUUCUGCUGUAUAUCUC, for which the self-cleavage came out at 0.96.

Regarding UACCAGGGGGCCACAGCAGAAGCGUUCACGUCGCAGCCCCUGUCAGAUUCUGGUGAAUCUGCGAAUUCUGCAGUAUAUCUC, the self-cleavage was 1.09.

In the case of CAACAGGGGGCCACAGCAGAAGCGUUCACGUCGCAGCCCCUGUCAGAUUCUGGCGAAUCUGCGAAUUCUGCUGUAUAUCUC, the self-cleavage was determined as 0.68.

On to UAACAGGAGGCCACAGCAGAAGCGUUCACGCCGCAGCCCCUGUCAGAUUCUGGUGAAUCUGCGAAUUCUGCUGUAUAUCUC, for which the self-cleavage came out at 0.24.

On to UAACAGGGGGCCACAGCAGAAGCGUUCACAUCGCAGCCCCAGUCAGAUUCUGGUGAAUCUGCGAAUUCUGCUGUAUAUCUC, for which the self-cleavage came to 0.14.

On to UAACAGGGGGCCACAGCCGAAGCGUUCACGUCGCAGCCCCUGUCAGAUUCUGGUGAAUCUGCGAGUUCUGCUGUAUAUCUC, for which the self-cleavage was 0.26.

With UAACAGUGGGCCACAGCAGAAGCGUUCACAUCGCAGCCCCUGUCAGAUUCUGGUGAAUCUGCGAAUUCUGCUGUAUAUCUC, the self-cleavage is 0.16.

Take UAACAGGGGGCCACAGCAGAAGCGUUCACGUCGCAGCCCCUGUCAGAUUCUGGUGAAUCUGCGACCUCUGCUGUAUAUCUC: the self-cleavage stood at 0.11.

On to UAACAGGGGGCCACAGCAGAAGCGUUCACGUCGCAGCCCCUGUCAGAUUCUGGUGGAUCUGCGAAUUCUGCGGUAUAUCUC, for which the self-cleavage came out at 0.63.

With CAACACGGGGCCACAGCAGAAGCGUUCACGUCGCAGCCCCUGUCAGAUUCUGGUGAAUCUGCGAAUUCUGCUGUAUAUCUC, the self-cleavage was determined as 0.56.

In the case of UAACAGGGGGCCACAGCAGAAGCGUUCACGUCGCAGCCCGUGUCAGAUUCUGGUGAAUCUGCGAAUUCUGCUGUAUAUCUC, the self-cleavage is 0.29.

Take UAACAGGGGGCCACAGCAGAAGCGUUCACGUCGCAGCCCCUGUCAGAUUCUGGUGAAUCUGCGAAUUCUGCUGUAUACCGC: the self-cleavage was determined as 1.15.

Consider UAACAGGGGGCUACAGCAGAAGCGUUCACGGCGCAGCCCCUGUCAGAUUCUGGUGAAUCUGCGAAUUCUGCUGUAUAUCUC, for which the self-cleavage stood at 0.91.

In the case of UAACAGGGGGCCACAGUAGAAGCGUUCACGUCGCAGCCCCGGUCAGAUUCUGGUGAAUCUGCGAAUUCUGCUGUAUAUCUC, the self-cleavage turned out to be 0.37.

With UAACAGGGGGCCACAGCAGAAGCGUUCACGACGCAGCCCCUGUCAGAUUCUGGCGAAUCUGCGAAUUCUGCUGUAUAUCUC, the self-cleavage amounted to 0.5.

UAAUAGGGGGCCACAGCAGAAGCGUUCACGUCGCAGCCCCUGUCAGAUUCUGGUUAAUCUGCGAAUUCUGCUGUAUAUCUC: the self-cleavage was 1.28.

Take UAACAGGGGGCCACAGCAGAAGCAUUCACGUCGCAGCCCCUGUCAGAUUCUGGUGAAUCUCCGAAUUCUGCUGUAUAUCUC: the self-cleavage was determined as 0.09.

Regarding UAACAGGGGGCCACAGCAGAAGAGUUCACGUCGCAGCCUCUGUCAGAUUCUGGUGAAUCUGCGAAUUCUGCUGUAUAUCUC, the self-cleavage amounted to 0.23.

Regarding UAACAGAGGGCCACAGCAGAAGCGUUCACGUCUCAGCCCCUGUCAGAUUCUGGUGAAUCUGCGAAUUCUGCUGUAUAUCUC, the self-cleavage was determined as 0.07.
